The target of this data set is T1, ZNF143 DBD (UniProt P52747 237-440).
T1 sequence: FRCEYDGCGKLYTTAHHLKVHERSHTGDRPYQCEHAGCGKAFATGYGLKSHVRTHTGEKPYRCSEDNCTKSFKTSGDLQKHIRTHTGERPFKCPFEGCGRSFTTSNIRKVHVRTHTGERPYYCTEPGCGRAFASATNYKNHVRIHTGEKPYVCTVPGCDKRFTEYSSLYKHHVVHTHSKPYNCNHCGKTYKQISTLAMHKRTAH
Nature of the data set: EMSA; 20 fmol 32P probe; 4% native PAGE in 0.25x TBE; competition: 20 min preincubation at room temperature, 10 uL; buffer as in ref 33 (not given); competitor excess 200-fold (Methods) or 1000-fold (Fig 2E legend). The settings on record: protein: recombinant, blunt. (A gel shift assay detects complexes by their altered migration in electrophoresis.)

Here are results for five molecules from PMC3936768, “Transcription factor abundance controlled by an auto-regulatory mechanism involving a transcription start site switch”.

B1: mut SBS/B- (dsDNA)
DNA 1: CGATTACCATGCACCAGGACAGG
DNA 2: CCTGTCCTGGTGCATGGTAATCG
Regarding B1, for the setting “label: 5' 32P”, the binding result was “no binding”.

B2: SBS/A (dsDNA)
DNA 1: CAGCCCAATGGAAGCTGGGGGCG
DNA 2: CGCCCCCAGCTTCCATTGGGCTG
Turning to B2, the binding result (label: 5' 32P) is given as “no binding”.

B3: SBS/C (dsDNA)
DNA 1: TTTTACCCAGTGTGCATTATTCTCC
DNA 2: GGAGAATAATGCACACTGGGTAAAA
For B3, the binding result is recorded as “binds”.

B4: mut SBS/C- (dsDNA)
DNA 1: GTTTTTAAAACGTGTGCATTATTCTCC
DNA 2: GGAGAATAATGCACACGTTTTAAAAAC
On to B4, for which the binding result (label: 5' 32P) was “no binding”.

B5: SBS/B (dsDNA)
DNA 1: TGTCCTGGTGCATGGTGGTCGGA
DNA 2: TCCGACCACCATGCACCAGGACA
As to B5, the binding result was “binds”.
